Assay results taken from patent US20240417484A1, “ANTIGEN-BINDING POLYPEPTIDES AGAINST CD73” (UNIVERSITÄTSKLINIKUM HAMBURG-EPPENDORF, priority 2021, published 2024).
Numbering of substitutions follows the chain as printed. Values belong to the molecule of their own block, whether it stands above or below them.

Tests used:
soluble human CD73 = target: T1, soluble human CD73 (Homo sapiens, UniProt P21589); test: Off-rates of soluble CD73 from immobilized Nb-rbIgG hcAb on Octet BLI; assay type: binding; conditions: soluble human CD73 ectodomain 200 ng/μl as analyte; Nb-rbIgG hcAb immobilized on protein A biosensor
T1 construct: The ectodomain of CD73 (aa 27-549) was expressed as a recombinant protein with a C-terminal His6× tag; His6 (C); made in house; host or cells: transiently transfected HEK cells
T1 sequence (P21589 27-549): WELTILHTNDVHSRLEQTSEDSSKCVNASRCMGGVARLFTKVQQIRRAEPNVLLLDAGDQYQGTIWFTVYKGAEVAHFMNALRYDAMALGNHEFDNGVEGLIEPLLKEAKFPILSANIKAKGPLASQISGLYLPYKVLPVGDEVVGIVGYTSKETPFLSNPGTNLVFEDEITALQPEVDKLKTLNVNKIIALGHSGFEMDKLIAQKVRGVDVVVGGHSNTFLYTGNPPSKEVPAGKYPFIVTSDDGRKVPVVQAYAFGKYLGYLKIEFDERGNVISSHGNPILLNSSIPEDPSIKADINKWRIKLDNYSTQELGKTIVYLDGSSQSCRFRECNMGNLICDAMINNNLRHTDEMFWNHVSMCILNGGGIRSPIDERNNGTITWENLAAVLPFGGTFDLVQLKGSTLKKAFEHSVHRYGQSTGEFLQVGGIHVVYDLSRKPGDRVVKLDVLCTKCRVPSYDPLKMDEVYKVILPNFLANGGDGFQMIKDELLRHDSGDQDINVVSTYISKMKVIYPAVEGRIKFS
Procedure: (§1) The binding off-rate constants of bivalent hcAbs to human and mouse CD73 protein were determined by […] kinetic analysis on Octet RED96 (ForteBio). Immobilization of rabbit IgG hcAbs on the protein A-biosensor surface was done in HEK-6E cell supernatant, and regeneration of analytes was done with 100 mM Glycin pH=2.5. Recombinant mouse or human CD73 ectodomain was used as analytes and tested at a saturating dose of 200 ng/μl. Sensorgrams were fitted using least square regression in association than dissociation Model in Prism8 (Graphpad).

[1] = target: T2, recombinant human CD73 ectodomain (aa 27-549) with C-terminal His6x tag (human, UniProt P21589 27-549); test: BLI (Octet), immobilized Nb-rbIgG hcAb, soluble human CD73 as analyte
T2 construct: also called soluble recombinant human CD73; soluble human CD73
T2 sequence: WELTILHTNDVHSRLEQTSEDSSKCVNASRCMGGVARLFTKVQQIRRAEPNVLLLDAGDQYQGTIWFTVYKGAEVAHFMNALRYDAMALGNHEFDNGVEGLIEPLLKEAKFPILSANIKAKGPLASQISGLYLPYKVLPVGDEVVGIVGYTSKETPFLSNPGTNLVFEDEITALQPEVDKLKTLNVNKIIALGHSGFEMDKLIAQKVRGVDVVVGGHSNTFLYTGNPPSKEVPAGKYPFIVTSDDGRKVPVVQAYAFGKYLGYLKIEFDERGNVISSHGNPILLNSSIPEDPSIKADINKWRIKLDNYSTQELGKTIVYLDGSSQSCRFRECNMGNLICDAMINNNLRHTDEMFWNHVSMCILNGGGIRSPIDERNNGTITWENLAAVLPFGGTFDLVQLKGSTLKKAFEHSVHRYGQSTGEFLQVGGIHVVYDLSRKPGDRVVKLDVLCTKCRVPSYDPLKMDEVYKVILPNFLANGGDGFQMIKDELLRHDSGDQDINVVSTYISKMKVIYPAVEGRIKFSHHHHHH
Procedure: as §1

Kdis (soluble human CD73): 0.0011 s⁻¹
B1: SB124: CD73-specific alpaca VHH clone, family 1, SEQ ID NO:65; tested as rabbit IgG hcAb (antibody)
heavy: QVQLQESGGGLVQPGGSLRLSCAASGFTLDYYTIGWFRQAPGKEREGVSCVSSSGDRTDYLESVKGRLTISRDNAKNTVYLQMNSLKPEDTGVYYCAAQKYYYCSGKVEVYDYWGQGTQVTVSS
modifications: left off: a dimerising Fc or GST
notes: tested as rabbit IgG hcAb

koff [1]: 0.00058 s⁻¹
B2: SB125 rabbit IgG hcAb (Fc fusion)
heavy: QVQLQESGGGLVQPGGSLRLSCAVSGFALDYYTIGWFRQAPGKEREGVSCISSSGGSTNYADSVKGRLTISRDNAKNTVYLQMNSLKPEDTAVYYCAAQRYYYCSDKVEVYDYWGQGTQVTVSS
notes: not shown: hinge and Fc-domains of rabbit IgG

Kdis (soluble human CD73): 0.0018 s⁻¹
B3: SB98: CD73-specific alpaca VHH clone, family 1, SEQ ID NO:62; tested as rabbit IgG hcAb (antibody)
heavy: B2 heavy with Q3K, V24A, A28T, S57I, R100K, D106G, V108A
modifications: left off: a dimerising Fc or GST
notes: tested as rabbit IgG hcAb

Kdis (soluble human CD73): 0.00058 s⁻¹
B4: SB125: CD73-specific alpaca VHH clone, family 1, SEQ ID NO:68; tested as rabbit IgG hcAb (antibody)
heavy: B2 heavy
modifications: left off: a dimerising Fc or GST
notes: tested as rabbit IgG hcAb

koff [1]: 0.0011 s⁻¹
B5: SB124 rabbit IgG hcAb (Fc fusion)
heavy: B1 heavy
notes: as for B2

koff [1]: 9.7e-05 s⁻¹
B6: SB108 rabbit IgG hcAb (Fc fusion)
heavy: B2 heavy with Q3K, Q13H, P14S, G56S, V64M, E109A
notes: as for B2

koff [1]: 0.0018 s⁻¹
B7: SB98 rabbit IgG hcAb (Fc fusion)
heavy: B2 heavy with Q3K, V24A, A28T, S57I, R100K, D106G, V108A
notes: as for B2

koff [1]: 0.00035 s⁻¹
B8: SB115 rabbit IgG hcAb (Fc fusion)
heavy: DVQLQASGGGLVQPGGSLRLSCVVSGFTLDYYTIGWFRQAPGKEREGVSCINSSGGVTNYADSVKGRFTISRDNAKNTVYLQMNSLKSEDTAVYYCAAQKYYYCSRKGEVYDSWGQGTQVTVSS
notes: as for B2

koff [1]: 4.3e-05 s⁻¹
B9: SB123 rabbit IgG hcAb (Fc fusion)
heavy: DVQLQESGGGLVQPGGSLTLSCAASGFTLDYLSIGWFRQVPGKEREGVSCINSSGGSTNYADSVKGRLTISRDNAKNTVYLQINSLKPEDTAVYYCAAHKYYYCSNKVAVFDYWGQGTQVTVSS
notes: as for B2

Kdis (soluble human CD73): 4.3e-05 s⁻¹
B10: SB123: CD73-specific alpaca VHH clone, family 1, SEQ ID NO:64; tested as rabbit IgG hcAb (antibody)
heavy: B9 heavy
modifications: left off: a dimerising Fc or GST
notes: tested as rabbit IgG hcAb

koff [1]: 0.00036 s⁻¹
B11: SB142 rabbit IgG hcAb (Fc fusion)
heavy: QVQLVESGGGLVQPGGSLRLSCAASGFTFINYHMSWLRQAPGKGLEWVSEIHSRGDITSYTNSVKGRFTISRDNAKNTLYLQMNSLKFDDTAVYYCARSRDLFGEGEYDYWGRGTQVTVSS
notes: as for B2
